In patent EP4674868A1:
Read-outs that look alike come from different tables or passages of the source.

Assays:
[1] = molecular target: human 4-1BB on the surface of HEK293 cells (HEK293-Hu4-1BB) (human) (UniProt Q07011); experiment: cell-based or functional assay
[2] = molecular target: human 4-1BB on the surface of HEK293 cells (HEK293-Hu4-1BB) (human) (UniProt Q07011); experiment: FACS, HEK293-Hu4-1BB cells
[3] = molecular target: human 4-1BB on the surface of HEK293 cells (HEK293-Hu4-1BB) (human) (UniProt Q07011); experiment: cell-based or functional assay; remark: listed apart in the source
[4] = molecular target: human 4-1BB on the surface of HEK293 cells (HEK293-Hu4-1BB) (human) (UniProt Q07011); experiment: FACS, HEK293-Hu4-1BB cells; remark: listed apart in the source
[5] = molecular target: human 4-1BB on the surface of HEK293 cells (HEK293-Hu4-1BB) (human) (UniProt Q07011); experiment: FACS, HEK293-Hu4-1BB cells; remark: listed apart in the source
[6] = molecular target: human CD40 on the surface of HEK293 cells (HEK293-HuCD40) (human) (UniProt P25942); experiment: cell-based or functional assay
[7] = molecular target: human FAP on the surface of CHO-K1 cells (CHO-K1-HuFAP) (human) (UniProt Q12884); experiment: FACS, CHO-K1-HuFAP cells
[8] = molecular target: human 4-1BB on the surface of HEK293 cells (HEK293-Hu4-1BB) (human) (UniProt Q07011); experiment: FACS, HEK293-Hu4-1BB cells; remark: listed apart in the source
[9] = molecular target: human CD40 on the surface of HEK293 cells (HEK293-HuCD40) (human) (UniProt P25942); experiment: cell-based or functional assay; remark: listed apart in the source
[10] = molecular target: human FAP on the surface of CHO-K1 cells (CHO-K1-HuFAP) (human) (UniProt Q12884); experiment: FACS, CHO-K1-HuFAP cells; remark: listed apart in the source
[11] = molecular target: human CD40 on the surface of HEK293 cells (HEK293-HuCD40) (human) (UniProt P25942); experiment: FACS, HEK293-HuCD40 cells
[12] = molecular target: human CD40 on the surface of HEK293 cells (HEK293-HuCD40) (human) (UniProt P25942); experiment: FACS, HEK293-HuCD40 cells; remark: listed apart in the source
[13] = molecular target: human FAP on the surface of CHO-K1 cells (CHO-K1-HuFAP) (human) (UniProt Q12884); experiment: FACS, CHO-K1-HuFAP cells; remark: listed apart in the source

| Substance | 4-1BB/NF-κB luciferase reporter, CD40-crosslinked, Fold change in Emax [1] [fold] | 4-1BB/NF-κB luciferase reporter, FAP-crosslinked, Fold change in Emax [1] [fold] | 4-1BB/NF-κB luciferase reporter, uncrosslinked, Fold change in Emax [1] [fold] | Maximum fluorescence value [2] | 4-1BB/NF-κB luciferase reporter, CD40-crosslinked, Fold change in Emax [3] [fold] | 4-1BB/NF-κB luciferase reporter, FAP-crosslinked, Fold change in Emax [3] [fold] | 4-1BB/NF-κB luciferase reporter, uncrosslinked, Fold change in Emax [3] [fold] | Maximum fluorescence value [4] | Maximum fluorescence value [5] | CD40/NF-κB reporter (HEK-Blue CD40L), 4-1BB-crosslinked, Fold change in Emax [6] [fold] | CD40/NF-κB reporter (HEK-Blue CD40L), FAP-crosslinked, Fold change in Emax [6] [fold] | CD40/NF-κB reporter (HEK-Blue CD40L), uncrosslinked, Fold change in Emax [6] [fold] | Maximum fluorescence value [7] | Maximum fluorescence value [8] | CD40/NF-κB reporter (HEK-Blue CD40L), uncrosslinked, Fold change in Emax [9] [fold] | Maximum fluorescence value [10] | Maximum fluorescence value [11] | Maximum fluorescence value [12] | Maximum fluorescence value [13] |
| --- | --- | --- | --- | --- | --- | --- | --- | --- | --- | --- | --- | --- | --- | --- | --- | --- | --- | --- | --- |
| RO7300490 (2302(2+1)PG), FAP/CD40 bispecific antibody molecule, control | 1.06 | 1.02 | 1.01 | 1790 |  |  |  |  |  |  |  |  |  |  |  |  |  |  |  |
| IgG1 isotype control (antibody) | 1.05 | 1.08 | 1.1 | 65 | 1.06 | 1.04 | 1.05 | 67 | 69 | 0.99 | 0.99 | 1 | 62 | 63 | 0.99 | 63 | 61 | 62 | 64 |
